Experimental findings from PMC6547859 (The Journal of Experimental Medicine, 2019) are described below.

This series deals with the molecule itself. Description: SEC. (Size exclusion chromatography separates by hydrodynamic size, large species first.)

A word on the stoichiometry N: it is the number of molecules, sites or subunits per partner or assembly.

B1: FLAG-tagged Regnase-1, full-length, phosphorylated (Expi293F, coexpressed with Myc-Act1 and HA-TBK1 or HA-IKKi) (natural protein, UniProt Q5D1E7 1-596, looked up)
chain: MSDPCGTKPVQESNPTMSLWSLEDRHSSQGRPQPDQDPVAKEAPTSELQMKVDFFRKLGYSSSEIHSVLQKLGVQADTNTVLGELVKHGSATERECQALTAPSPQPPLVPRGGSTPKPSTLEPSLPEEDREGSDLRPVVIDGSNVAMSHGNKEVFSCRGILLAVNWFLERGHTDITVFVPSWRKEQPRPDVPITDQHILRELEKKKILVFTPSRRVGGKRVVCYDDRFIVKLAFESDGVVVSNDTYRDLQGERQEWKRFIEERLLMYSFVNDKFMPPDDPLGRHGPSLDNFLRKKPLPSEHRKQPCPYGKKCTYGIKCRFFHPERPSRPQRSVADELRANALLSPPRTPVKDKSSQRPSPASQSSSVSLEAEPGSLDGKKLGARSSPGPHREGSPQTCAPAGRSLPVSGGSFGPTEWLAHTQDSLPYTSQECLDSGIGSLESQMSELWGVRGGSPGESGPTRGPYAGYHSYGSKVPAAPSFSPFRPAMGAGHFSVPTDYVPPPPTYPSREYWSEPYPLPPPTPVLQEPQRPSPGAGGGPWGRVGDLAKERAGVYTKLCGVFPPHLVEAVMRRFPQLLDPQQLAAEILSYKSQHLSE
modifications: phosphorylated by coexpression with Act1 and TBK1 or IKKi; phosphorylation sites identified: Ser439, Ser494, Thr505, Ser508, Ser513
Take B1: the “stoichiometry N” value amounted to 3.
